Data taken from patent publication US20150111306, “HEMOGLOBIN A1c-SPECIFIC APTAMER, HEMOGLOBIN-SPECIFIC APTAMER, AND APPLICATIONS THEREOF” (National Tsing Hua University, published 2015).

Biological target: Hemoglobin (Hb) (UniProt P69905;P68871 P69905:2-142,P68871:2-147)
Experiment: pulldown; biotin-aptamer streptavidin bead sandwich chemiluminescence in blood, R2=0.9821
Settings: tags: conjugated to magnetic beads; also captured from blood; chain copies: alpha2beta2 tetramer (inferred); label: biotin (blood detection assay); stem-loop (MFOLD, -9.67 kcal/mol)
Source text: The detection of this embodiment is also a two-antibody assay; therefore, please refer to Example 2 for the detection process. In this embodiment, the nucleic acid sequence of SEQ ID NO: 7 with lower free energy was used as the aptamer. The aptamer was labeled by biotin and was used to replace the anti-Hb antibody in the two-antibody assay. The surface of the magnetic bead used was also conjugated with streptavidin. Upon mixing with blood, the hemoglobin-specific aptamer would bind to hemoglobin in blood. After a magnetic field was applied and the unbound substances were washed away, an acridinium ester-labeled anti-Hb antibody was added. The acridinium ester-labeled anti-Hb antibody produces chemiluminescense, thus, can be detected using luminometer.

Hemoglobin (Hb), sequence (P69905 2-142, chain 1 of 2): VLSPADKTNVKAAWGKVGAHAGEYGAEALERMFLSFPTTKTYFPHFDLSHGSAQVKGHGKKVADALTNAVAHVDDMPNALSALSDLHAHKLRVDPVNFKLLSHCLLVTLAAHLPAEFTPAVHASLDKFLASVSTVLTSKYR
Hemoglobin (Hb), sequence (P68871 2-147, chain 2 of 2): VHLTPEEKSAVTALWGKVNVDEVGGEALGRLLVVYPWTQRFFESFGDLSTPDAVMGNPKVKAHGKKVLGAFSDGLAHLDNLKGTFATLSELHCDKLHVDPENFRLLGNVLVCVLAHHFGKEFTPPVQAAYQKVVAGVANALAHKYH

B1: Hb-specific aptamer SEQ ID NO: 7 (ssDNA)
DNA: GGCAGGAAGACAAACACCAGGTGAGGGAGACGACGCGAGTGTTAGATGGTAGCTGTTGGTCTGTGGTGCTGT
B1: binds.
